To fix the notation:
T1: human IL-2Rβ (human, UniProt P14784 27-239)
T1 sequence (looked up): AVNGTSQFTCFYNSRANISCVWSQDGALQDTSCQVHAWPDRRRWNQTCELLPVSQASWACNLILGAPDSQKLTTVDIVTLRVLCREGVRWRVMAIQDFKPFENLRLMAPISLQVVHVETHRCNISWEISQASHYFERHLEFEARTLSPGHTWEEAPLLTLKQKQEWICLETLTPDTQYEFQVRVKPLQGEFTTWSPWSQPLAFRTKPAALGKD

B1: parental 18A5 antibody (antibody, V domains shown)
VH: QVQLQESGPGLVKTSETLSLTCAVSGYSISSGYYWGWIRQPPGKGLEWIGSISHTGNTYYNPPLKSRVTISVDTSKNQFSLKLSSVTAADTAVYYCARGGGISRPEYWGKGTLVTVSS
VL: SSELTQDPPVSVALGQTVTLTCQGDSLRTYYASWYQQKSGQAPILLLYGKHKRPSGIPDRFSGSTSGDTASLTITGAQAEDEADYYCNSRDSSGNPHVLFGGGTQLTVL
notes: also called 18A5 IgG
B2: AbT (antibody, human IgG1, V domains shown)
VH: B1 VH with T14P, K110Q
VL: SSELTQDPAVSVALGQTVRITCQGDSLRTYYASWYQQKPGQAPVLVIYGKHKRPSGIPDRFSGSSSGNTASLTITGAQAEDEADYYCVARSNKGNPHVLFGGGTQLTVL
notes: CDR3 graft, residue limits derived as for m29; also called VHP/VL9; VHPTM/VL9
B3: AbR (antibody, human IgG1, V domains shown)
VH: B1 VH with T14P, G99F, G100M, I102F, S103G, K110Q
VL: B2 VL with A89T, N92V
notes: CDR3 graft, residue limits derived as for m29; also called VH3/VL18; VH3DM/VL18
B4: AbS (antibody, V domains shown)
VH: B1 VH with T14P, K110Q
VL: B2 VL with V88M, A89S, N92I, K93W
notes: CDR3 graft, residue limits derived as for m29; also called VHP/VL6; VHPTM/VL6
B5: AbP (antibody, human IgG1, V domains shown)
VH: B1 VH with T14P, K110Q
VL: B2 VL with A89S, N92A
notes: CDR3 graft, residue limits derived as for m29; also called VHP/VL20; VHPTM/VL20
B6: AbO (antibody, human IgG1, V domains shown)
VH: B1 VH with T14P, K110Q
VL: B2 VL with A89T, N92A
notes: CDR3 graft, residue limits derived as for m29; also called VHP/VL16; VHPTM/VL16
B7: AbU (antibody, human IgG1, V domains shown)
VH: B1 VH with T14P, K110Q
VL: B2 VL with V88T, A89T
notes: CDR3 graft, residue limits derived as for m29; also called VHP/VL25; VHPTM/VL25
B8: AbQ (antibody, human IgG1, V domains shown)
VH: B1 VH with T14P, G99F, G100M, I102F, S103G, K110Q
VL: B2 VL with N92V, K93V
notes: CDR3 graft, residue limits derived as for m29; also called VH3/VL2; VH3DM/VL2

Numbering of substitutions follows the chain as printed.

T2 sequence (Q9HBE5 20-538 limits assumed): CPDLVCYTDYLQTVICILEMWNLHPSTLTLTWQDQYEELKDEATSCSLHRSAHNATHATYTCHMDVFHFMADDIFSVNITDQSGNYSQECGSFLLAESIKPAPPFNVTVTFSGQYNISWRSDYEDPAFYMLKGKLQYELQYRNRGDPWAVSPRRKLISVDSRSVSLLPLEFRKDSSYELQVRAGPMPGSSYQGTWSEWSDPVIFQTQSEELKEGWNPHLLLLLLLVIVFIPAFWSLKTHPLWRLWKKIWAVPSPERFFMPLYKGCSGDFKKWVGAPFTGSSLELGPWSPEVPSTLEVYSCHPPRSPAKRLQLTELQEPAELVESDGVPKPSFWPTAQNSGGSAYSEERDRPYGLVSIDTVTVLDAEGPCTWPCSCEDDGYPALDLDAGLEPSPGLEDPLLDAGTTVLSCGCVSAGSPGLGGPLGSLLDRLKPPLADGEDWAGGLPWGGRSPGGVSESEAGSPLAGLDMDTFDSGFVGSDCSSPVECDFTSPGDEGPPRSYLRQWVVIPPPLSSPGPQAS

One assay concerns the target T2, human IL-21R expressed on cells (human, UniProt Q9HBE5 20-538). Put plainly: cell-based or functional assay.
For B1, the “Human IL-21R-BaF3 Neutralization IC50” value turned out to be 1.71 nM and the “Human IL-21R-TF1 Neutralization IC50” value stood at 14 nM.

Consider B2, for which the “Human IL-21R-BaF3 Neutralization IC50” value is 0.3 nM and the “Human IL-21R-TF1 Neutralization IC50” value is 2.32 nM.

As to B3, the “Human IL-21R-BaF3 Neutralization IC50” value came to 0.56 nM and the “Human IL-21R-TF1 Neutralization IC50” value is 1.63 nM.

In the case of B4, the “Human IL-21R-BaF3 Neutralization IC50” value stood at 0.68 nM and the “Human IL-21R-TF1 Neutralization IC50” value is 6.67 nM.

For a further assay, the target named is murine IL-21R expressed on cells (murine, UniProt Q9JHX3 20-529). Put plainly: cell-based or functional assay.
Sequence of murine IL-21R expressed on cells (Q9JHX3 20-529 limits assumed): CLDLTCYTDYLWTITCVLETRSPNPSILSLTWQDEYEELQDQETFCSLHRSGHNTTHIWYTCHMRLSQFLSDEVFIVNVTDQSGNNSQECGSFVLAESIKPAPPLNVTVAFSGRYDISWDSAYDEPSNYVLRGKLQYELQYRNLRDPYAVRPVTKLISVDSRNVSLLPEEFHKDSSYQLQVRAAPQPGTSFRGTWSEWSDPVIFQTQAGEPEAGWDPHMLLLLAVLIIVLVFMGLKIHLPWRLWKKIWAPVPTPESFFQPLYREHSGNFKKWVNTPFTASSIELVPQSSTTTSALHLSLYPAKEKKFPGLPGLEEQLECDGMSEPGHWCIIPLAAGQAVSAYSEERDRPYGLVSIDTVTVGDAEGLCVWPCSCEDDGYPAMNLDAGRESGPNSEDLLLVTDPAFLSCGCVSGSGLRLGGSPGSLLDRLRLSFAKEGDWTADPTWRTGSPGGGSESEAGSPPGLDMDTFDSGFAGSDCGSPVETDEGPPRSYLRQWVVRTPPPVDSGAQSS
Take B1: the “Murine IL-21R-BaF3 Neutralization IC50” value is 177 nM.

With B2, the “Murine IL-21R-BaF3 Neutralization IC50” value is 0.05 nM.

In the case of B3, the “Murine IL-21R-BaF3 Neutralization IC50” value was determined as 0.34 nM.

For B4, the “Murine IL-21R-BaF3 Neutralization IC50” value amounted to 0.04 nM.

A further assay deals with T1, human IL-2Rβ. Put plainly: BIACORE: antibody captured on anti-human IgG; 50 nM analyte injected. How it is done:
(§1) The specificity of binding of a subset of transiently expressed anti-IL-21R binding proteins (here antibodies) was tested on a BIACORE™ 2000 surface plasmon resonance instrument. Anti-human-IgG, anti-murine immunoglobulin antibodies, and murine IL-21R-H/F were immobilized onto a research-grade carboxymethyl-dextran chip (CM5) using standard amine coupling. The sensor chip surface was activated with EDC/NHS for 7 min at a flow rate of 20 μl/min. The first flow cell was used as reference surface to correct for bulk refractive index, matrix effects, and nonspecific binding. […] Remaining activated groups were blocked with 1.0 M ethanolamine (pH 8.0). The molecular weights of the anti-human IgG and the anti-murine IgG were both 150 kD, and the molecular weight of the IL-21R monomer was 27 kD.
(§2) Conditioned media containing anti-IL-21R antibodies and antibody controls (murine anti-human IL-2Rβ and murine anti-human IL-4R(R&D Systems, Minneapolis, Minn.); human anti-human IL-13 (Wyeth, Cambridge, Mass.)) were diluted in HBS/EP buffer supplemented with 0.2% bovine serum and injected onto all four flow cells of the BIACORE™ chip, capturing 500-700 (RU) of antibody on the species-appropriate capture antibody. Following a 5 sec washing period, 50 nM solutions of a positive control protein (murine IL-21R-H/F), two human proteins related to IL-21R (human IL-2Rβ and human sIL-4R(R&D Systems)), or an unrelated His/FLAG-tagged protein (human IL-13-H/F) were injected over the captured antibodies on the chip. The association and dissociation phases were monitored for 120 and 180 sec, respectively, followed by two 5 μl injections of glycine (pH 1.5) to regenerate a fully active capturing surface. All binding experiments were done at 25° C. in HBS/EP buffer. Blank and buffer effects were subtracted for each sensorgram using double referencing.
With B5, the binding result is “no binding (tested: 50 nM)”.

As for B6, the binding result is reported as “no binding (tested: 50 nM)”.

On to B2, for which the binding result is listed as “no binding (tested: 50 nM)”.

Turning to B3, the binding result is reported as “no binding (tested: 50 nM)”.

In the case of B4, the binding result was “no binding (tested: 50 nM)”.

Take B7: the binding result is recorded as “no binding (tested: 50 nM)”.

B8: the binding result is recorded as “no binding (tested: 50 nM)”.

A further assay has as its target T3, human soluble IL-4R (human, UniProt P24394 26-232, limits assumed).
T3 construct: also called human sIL-4R
The description is as above. How it is done:
as §1, §2
Turning to B5, the binding result is “no binding (tested: 50 nM)”.

For B6, the binding result was “no binding (tested: 50 nM)”.

On to B2, for which the binding result is reported as “no binding (tested: 50 nM)”.

Turning to B3, the binding result is recorded as “no binding (tested: 50 nM)”.

For B4, the binding result was “no binding (tested: 50 nM)”.

With B7, the binding result was “no binding (tested: 50 nM)”.

B8: the binding result is recorded as “no binding (tested: 50 nM)”.

The target of another assay is T4, human IL-13-His/FLAG (human, UniProt P35225 35-146, limits assumed).
T4 construct: Unrelated His/FLAG-tagged control; also called human IL-13-H/F
T4 sequence (P35225 35-146 limits assumed): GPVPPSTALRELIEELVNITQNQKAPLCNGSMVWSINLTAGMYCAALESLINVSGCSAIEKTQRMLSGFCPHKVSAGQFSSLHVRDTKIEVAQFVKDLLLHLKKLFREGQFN
The assay is described as above. How it is done: as §1, §2
As to B5, the binding result was “no binding (tested: 50 nM)”.

Regarding B6, the binding result is “no binding (tested: 50 nM)”.

For B2, the binding result is given as “no binding (tested: 50 nM)”.

Consider B3, for which the binding result is reported as “no binding (tested: 50 nM)”.

As to B4, the binding result is on record as “no binding (tested: 50 nM)”.

Consider B7, for which the binding result was “no binding (tested: 50 nM)”.

As to B8, the binding result is reported as “no binding (tested: 50 nM)”.

For a further assay, the target named is T5, rat IL-21R expressed on cells (rat).
T5 construct: whole, on cells
The assay is described as follows: cell-based ELISA on CHO cells transiently expressing rat IL-21R; HRP anti-human IgG, A450. The procedure:
FIG. 6(a-l) depicts the binding of 21 anti-IL-21R IgGs to CHO cells transiently expressing human IL-21R (FIGS. 6a-c), rat IL-21R (FIGS. 6d-f), cynomolgus monkey IL-21R (FIGS. 6g-i), and human gamma common chain (FIGS. 6j-1). CHO cells were transiently transfected with IL-21R or the control gamma common chain, and binding was detected with HRP-conjugated anti-human IgG in a cell-based ELISA.
A subset of binding proteins was tested for binding to rat, cynomolgus monkey, human IL-21R, or human IL-2R-γ common subunit expressed transiently on the surfaces of CHO-PA-Dukx cells. Cells were transfected 48 hr prior to the assay. On the day of the assay, cells were washed gently 5× in PBS containing 0.9 mM CaCl₂ and 0.45 mM MgCl₂ (PBS/CaMg) on an automated plate washer (Titertek, Huntsville, Ala.), and blocked for 1 hr at RT in PBS/CaMg/5% nonfat dry milk. Conditioned media from transiently expressed anti-IL-21R IgGs were serially diluted in blocking buffer and added to the cells in the blocked plates for 1 hr at RT. Cells were washed 5× with PBS/CaMg and then incubated with horseradish peroxidase-conjugated anti-human IgG for 1 hr at RT. Cells were then washed 10× in PBS/CaMg and all of the wash buffer was removed. Cells were incubated with 100 μl TMB until the color reaction reached saturation, stopped with 100 μl of 0.18 M H₂SO₄, and read at A450 on a Perkin Elmer ENVISION™ plate reader.
B6: the “EC50 (read off the curve)” value was about 0.4 nM.

For the molecule B2, the “EC50 (read off the curve)” value is about 1 nM.

Take B3: the “EC50 (read off the curve)” value is about 0.7 nM.

Consider B4, for which the “EC50 (read off the curve)” value was about 1 nM.

B8: the “EC50 (read off the curve)” value is about 0.8 nM.

A further assay concerns the target T2, human IL-21R expressed on cells. The assay is described as follows: cell-based ELISA on CHO cells transiently expressing human IL-21R; HRP anti-human IgG, A450. On the technique in general: ELISA stands for enzyme-linked immunosorbent assay.
For B5, the “EC50 (read off the curve)” value is about 1 nM.

As for B1, the “EC50 (read off the curve)” value was about 0.6 nM.

B6: the “EC50 (read off the curve)” value was about 0.4 nM.

Take B2: the “EC50 (read off the curve)” value was about 1 nM.

For the molecule B3, the “EC50 (read off the curve)” value was about 0.5 nM.

For B7, the “EC50 (read off the curve)” value is about 2 nM.

For the molecule B8, the “EC50 (read off the curve)” value is about 0.9 nM.

In the next assay the target is T6, human complement component C1q (human, UniProt P02745 23-245; P02746 28-253; P02747 29-245).
T6 construct: Native C1q in diluted human serum
T6 sequence (P02745 23-245, chain 1 of 3): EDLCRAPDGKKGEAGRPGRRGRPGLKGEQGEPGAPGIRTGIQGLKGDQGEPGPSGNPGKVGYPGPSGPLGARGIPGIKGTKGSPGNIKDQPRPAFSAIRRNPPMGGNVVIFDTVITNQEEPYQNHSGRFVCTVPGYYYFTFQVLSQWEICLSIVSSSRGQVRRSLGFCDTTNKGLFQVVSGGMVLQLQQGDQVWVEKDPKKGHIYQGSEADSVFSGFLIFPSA
T6 sequence (P02746 28-253, chain 2 of 3): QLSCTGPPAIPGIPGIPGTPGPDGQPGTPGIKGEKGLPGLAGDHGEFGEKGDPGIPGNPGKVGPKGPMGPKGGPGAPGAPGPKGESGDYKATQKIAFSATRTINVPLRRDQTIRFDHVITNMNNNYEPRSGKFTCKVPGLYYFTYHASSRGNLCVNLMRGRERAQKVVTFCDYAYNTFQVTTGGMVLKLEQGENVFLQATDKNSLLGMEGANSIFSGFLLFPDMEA
T6 sequence (P02747 29-245, chain 3 of 3): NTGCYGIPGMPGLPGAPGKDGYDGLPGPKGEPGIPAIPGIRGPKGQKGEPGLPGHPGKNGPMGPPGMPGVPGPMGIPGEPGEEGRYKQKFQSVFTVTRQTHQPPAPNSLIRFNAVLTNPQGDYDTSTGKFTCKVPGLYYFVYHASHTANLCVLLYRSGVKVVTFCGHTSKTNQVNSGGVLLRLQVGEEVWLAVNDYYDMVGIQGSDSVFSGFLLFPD
The assay is described as follows: C1q ELISA: antibody coated on the plate, human serum 1:50, chicken anti-human C1q and HRP anti-chicken IgY. The procedure:
In order to determine whether cell-surface binding by anti-IL-21R antibodies is likely to lead to complement-dependent cytotoxicity (CDC), the antibodies were tested for their ability to bind to the complement component C1q in an ELISA. […] Diluted antibodies (100 μl) were coated onto a COSTAR® high-binding ELISA plate (Corning Life Sciences, Lowell, Mass.) overnight at 4° C. Plates were washed 3× with PBS/Tween-20 and blocked with 200 μl of blocking buffer (0.1 M NaPO₄, 0.1 M NaCl, 0.1% gelatin, 0.01% Tween) for 1 hr at RT. Human serum previously determined to contain C1q (Quidel, San Diego, Calif.) was diluted 1:50 in PBS. After 1 hr of blocking, plates were washed and 100 μl of diluted serum was added to each well and incubated for 2 hr at RT on a shaker. Following three washes, 100 μl A of 0.1 μg/ml chicken polyclonal anti-human C1q antibody (AbCam, Cambridge, Mass.) was added to each well and incubated for 1 hr at RT. Plates were again washed and incubated with 100 μA of a rabbit polyclonal antibody to chicken Ig-Y—HRP diluted 1:4000 (AbCam) for 1 hr at RT. Plates were washed and developed with TMB for 5 min, followed by 50 μA of 1 M H₂SO₄ to stop the reaction, and then read at 450 nm.
As for B5, the binding result is “no binding”.

Consider B6, for which the binding result is listed as “no binding”.

Consider B4, for which the binding result was “no binding”.

For B7, the binding result is “no binding”.

The term EC50 (read off the curve) denotes the concentration at which the effect is half-maximal.
